± gives the standard deviation of the averaged measurements.
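Further: PSI is a weighted mean of sequencing reads over stability bins, variants kept only with over 10 reads, mCherry proximal and sfGFP distal, peptide attached via GGGS linker.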

In the series the test system is Saccharomyces cerevisiae. The series is described as follows: protein stability index of tFT-peptide fusion (C-terminal peptide) (PSI (0-1 scale)); higher = more stable (slower turnover). To be noted: genetic background: wild type; temperature: 30 C.
LWPVSMTSSFFF registered a protein stability index of 0.661 ± 0.048. In turn, LWRFMLGQGFEG registered a protein stability index of 0.726 ± 0.022.

LWVGVGRWLRGR returned a protein stability index of 0.744 ± 0.014. The sequence LYAHVPSYRVSA gave a protein stability index of 0.593 ± 0.058. Then LYNVTRDTWVLS, with 0.66 ± 0.057; and LYPSFSHTPPPT, with 0.69 ± 0.056; and LYSPLLCRLPFP, with 0.666 ± 0.045. LYVLHCSLIEEV came in with a protein stability index of 0.543 ± 0.051. MAHAYTRKDTRK showed a protein stability index of 0.64 ± 0.052. In the case of MAICRVLSQVFL, the protein stability index worked out at 0.686 ± 0.12. MAIRSPACRLRF had a protein stability index of 0.674 ± 0.049. Take MAWGVGTRRLGW: the protein stability index worked out at 0.679 ± 0.044. Then MCDSFFGHSVRN, with 0.699 ± 0.043.

Take MCLWMGFWFACF: the protein stability index was determined as 0.537 ± 0.024. MENAMHQLNRNT gave a protein stability index of 0.679 ± 0.022.

On to MFDSHQWVCIKD, for which the protein stability index stood at 0.785 ± 0.1. MGGKGRGGRREI showed a protein stability index of 0.666 ± 0.041. For the sequence MGSQATPQRENS, the protein stability index was 0.659 ± 0.12.

Turning to MGVGINSGDKLC, the protein stability index worked out at 0.667 ± 0.11. Then MGVGRFEWVVGG, with 0.665 ± 0.053. The same measure for MGVHKQQMRGQR: 0.682 ± 0.036; for MGYPGFGRVPYV: 0.723 ± 0.053; for MHLRFYFLKTDV: 0.597 ± 0.02. Take MKIKIEINKNKT: the protein stability index came out at 0.654 ± 0.032. The same measure for MKKVQENIKGKH: 0.717 ± 0.11. With MKRMIKREIKIK, the protein stability index was 0.679 ± 0.089. MKTSIQHNRNPG yielded a protein stability index of 0.659 ± 0.0096. Consider MLFLGPRLVVPA, for which the protein stability index came out at 0.565 ± 0.0097. Sequence MLRRSGEGVRLE had a protein stability index of 0.7218 ± 0.0045. As to MLYNQDIGQELL, the protein stability index turned out to be 0.652 ± 0.058. Consider MMFRRLPTRGRF, for which the protein stability index was determined as 0.6951 ± 0.0021. In turn, MNQELRNCKGNG registered a protein stability index of 0.6259 ± 0.0034. MNRHLHFLSPET gave a protein stability index of 0.648 ± 0.031. In turn, MQGCKAYSVGRQ displayed a protein stability index of 0.701 ± 0.061. MQLTRKEEKSQE displayed a protein stability index of 0.658 ± 0.023. On to MSEFDVPLPIYM, for which the protein stability index was determined as 0.716 ± 0.063. The same measure for MTRGSAPELWLL: 0.655 ± 0.029.

With MVCSFVSLLGRF, the protein stability index came out at 0.69 ± 0.01. Then MVGGVLLSGCRF, with 0.6455 ± 0.0021; and MVVLSGVLPVGD, with 0.642 ± 0.0077. In the case of MWLGSGCWVNGL, the protein stability index is 0.735 ± 0.048. MWQSRSAYFGSN came in with a protein stability index of 0.692 ± 0.075. The sequence MWYCGVSGPGNG displayed a protein stability index of 0.6859 ± 0.0013. In turn, MYHGKKTAGINV showed a protein stability index of 0.7 ± 0.037.

As to MYRLSFAAGRGS, the protein stability index was 0.688 ± 0.016.

The sequence NAFTMWVSRQAR returned a protein stability index of 0.77 ± 0.02.

On to NALFGWMRGCLS, for which the protein stability index is 0.724 ± 0.034.

The sequence NARMPPHIVAGI displayed a protein stability index of 0.64 ± 0.034.

Consider NASVRMFIRTGC, for which the protein stability index was determined as 0.6971 ± 0.00097.

NCMFKSNKQGGA: the protein stability index came to 0.6749 ± 0.0021. As for NCPIQEPVSAIY, the protein stability index was determined as 0.661 ± 0.007. NCTHKKKTLTPN had a protein stability index of 0.726 ± 0.012. NDGSDYRFLSLK: the protein stability index amounted to 0.706 ± 0.011. In the case of NECKIKKDNTKK, the protein stability index is 0.672 ± 0.06. For the sequence NEEVAKKKKIRV, the protein stability index is 0.667 ± 0.061.

For NEINKPTRSQTA, the protein stability index stood at 0.644 ± 0.04. The same measure for NENFILCPRVNL: 0.701 ± 0.035; for NESSASKEKSNI: 0.69 ± 0.038; for NFQLIKKHSKNN: 0.63552 ± 0.00029.

Take NGGCCLVFRIEP: the protein stability index was 0.643 ± 0.029. As to NGQSELHDHYME, the protein stability index is 0.651 ± 0.013. In the case of NGSSFSRTVRFM, the protein stability index was 0.624 ± 0.038. The same measure for NGVGGMHGINIM: 0.696 ± 0.076. Turning to NHFQYHSPVASE, the protein stability index was determined as 0.688 ± 0.028.
